Assay [1] has as its target acetylcholine receptor. Put plainly: SPR, AchR immobilized on CM5 chip, peptide 10 µM. Background: SPR reads the build-up and loss of mass on a sensor chip optically.
Assay [2] deals with acetylcholine receptor. Put plainly: SPR, receptor immobilised on chip, peptide at 10 µM.
Assay [3] addresses acetylcholine receptor. The assay can be described thus: SPR, AchR immobilized on chip.

B1: 6mer-2-214 (peptide)
peptide: RWRSRK
In the assay with acetylcholine receptor [1], B1 had a Binding affinity (RU) of 139 RU.

B2: 6mer-2-227 (peptide)
peptide: KLQRRK
B2: the Binding affinity (RU) in the assay with acetylcholine receptor [1] turned out to be 147 RU.

B3: 6mer-2-253 (peptide)
peptide: KLRSRR
For B3, in the assay with acetylcholine receptor [1], the Binding affinity (RU) worked out at 145 RU.

B4: 6mer-2-251 (peptide)
peptide: KSQTKR
Turning to B4, in the assay with acetylcholine receptor [1], the Binding affinity (RU) was 142 RU.

B5: 6mer-2-263 (peptide)
peptide: RRICKR
B5: the Binding affinity (RU) with acetylcholine receptor [1] was found to be 145 RU.

B6: 6mer-2-261 (peptide)
peptide: RWYTKK
As for B6, the Binding affinity (RU) with acetylcholine receptor [1] came to 121 RU.

B7: 6mer-2-219 (peptide)
peptide: RGVSKR
Molecule B7 showed a Binding affinity (RU) in the assay with acetylcholine receptor [1] of 153 RU.

B8: 6mer-2-468 (peptide)
peptide: RSFSKR
For B8, the Binding affinity with acetylcholine receptor [2] stood at 133 RU.

B9: 6mer-2-258 (peptide)
peptide: KRIYRR
For B9, in the assay with acetylcholine receptor [1], the Binding affinity (RU) turned out to be 125 RU.

B10: 6mer-2-237 (peptide)
peptide: RLVYKR
B10: in the assay with acetylcholine receptor [1], the Binding affinity (RU) amounted to 123 RU.

B11: 6mer-2-256 (peptide)
peptide: KSQQKR
As for B11, in the assay with acetylcholine receptor [1], the Binding affinity (RU) was 142 RU.

B12: 6mer-2-264 (peptide)
peptide: KSQLKR
Take B12: in the assay with acetylcholine receptor [1], the Binding affinity (RU) came out at 127 RU.

B13: 6mer-2-244 (peptide)
peptide: RRFSKR
As for B13, the Binding affinity (RU) with acetylcholine receptor [1] was 139 RU.

B14: 6mer-2-266 (peptide)
peptide: RWQTKK
In turn, B14 yielded a Binding affinity (RU) with acetylcholine receptor [1] of 131 RU.

B15: 6mer-2-248 (peptide)
peptide: RSYTRR
In the assay with acetylcholine receptor [1], B15 came in with a Binding affinity (RU) of 154 RU.

B16: 6mer-2-238 (peptide)
peptide: RRRRRK
For the molecule B16, the Binding affinity (RU) in the assay with acetylcholine receptor [1] was 142 RU.

B17: 6mer-2-228 (peptide)
peptide: KGQCKK
For B17, in the assay with acetylcholine receptor [1], the Binding affinity (RU) was 141 RU.

B18: 6mer-2-222 (peptide)
peptide: RVVYRK
B18 registered a Binding affinity (RU) in the assay with acetylcholine receptor [1] of 127 RU.

B19: 6mer-2-246 (peptide)
peptide: KWISKK
Consider B19, for which, in the assay with acetylcholine receptor [1], the Binding affinity (RU) stood at 123 RU.

B20: 6mer-2-476 (peptide)
peptide: KGIRKK
On to B20, for which the Binding affinity with acetylcholine receptor [2] amounted to 148 RU.

B21: 6mer-2-260 (peptide)
peptide: RRFCKR
For the molecule B21, the Binding affinity (RU) with acetylcholine receptor [1] turned out to be 142 RU.

B22: 6mer-2-224 (peptide)
peptide: RLFLKR
B22 gave a Binding affinity (RU) with acetylcholine receptor [1] of 148 RU.

B23: 6mer-2-235 (peptide)
peptide: KLVRKK
B23 registered a Binding affinity (RU) with acetylcholine receptor [1] of 136 RU.

B24: 6mer-2-229 (peptide)
peptide: RWQSKK
Molecule B24 showed a Binding affinity (RU) in the assay with acetylcholine receptor [1] of 127 RU.

B25: 6mer-2-469 (peptide)
peptide: RLRTKK
B25 came in with a Binding affinity in the assay with acetylcholine receptor [2] of 153 RU.

B26: 6mer-2-230 (peptide)
peptide: RWIQRR
In the case of B26, in the assay with acetylcholine receptor [1], the Binding affinity (RU) turned out to be 135 RU.

B27: 6mer-2-471 (peptide)
peptide: KWISRR
Regarding B27, the Binding affinity with acetylcholine receptor [2] was 136 RU.

B28: 6mer-2-245 (peptide)
peptide: RSLSKR
In turn, B28 yielded a Binding affinity (RU) in the assay with acetylcholine receptor [1] of 135 RU.

B29: 6mer-2-470 (peptide)
peptide: RLRRRK
In the assay with acetylcholine receptor [2], B29 registered a Binding affinity of 153 RU.

B30: 6mer-2-223 (peptide)
peptide: KQLTRR
In the assay with acetylcholine receptor [1], B30 returned a Binding affinity (RU) of 142 RU.

B31: 6mer-2-473 (peptide)
peptide: RGRLRK
In the case of B31, in the assay with acetylcholine receptor [2], the Binding affinity amounted to 131 RU.

B32: 6mer-2-252 (peptide)
peptide: KVFRKK
Turning to B32, the Binding affinity (RU) with acetylcholine receptor [1] was 148 RU.

B33: 6mer-2-233 (peptide)
peptide: KWRQKR
Turning to B33, the Binding affinity (RU) with acetylcholine receptor [3] and in the assay with acetylcholine receptor [1] was 190 RU each time.

B34: 6mer-2-267 (peptide)
peptide: KLYSRR
In turn, B34 gave a Binding affinity (RU) with acetylcholine receptor [1] of 141 RU.

B35: 6mer-2-477 (peptide)
peptide: RSRTRR
Take B35: in the assay with acetylcholine receptor [2], the Binding affinity was 135 RU.

B36: 6mer-2-220 (peptide)
peptide: KVYSKR
Turning to B36, the Binding affinity (RU) in the assay with acetylcholine receptor [1] turned out to be 135 RU.

B37: 6mer-2-236 (peptide)
peptide: KWQQKK
In turn, B37 showed a Binding affinity (RU) in the assay with acetylcholine receptor [1] of 131 RU.

B38: 6mer-2-240 (peptide)
peptide: RRRCRK
Molecule B38 displayed a Binding affinity (RU) with acetylcholine receptor [1] of 142 RU.

B39: 6mer-2-242 (peptide)
peptide: KSQRRR
The molecule B39 yielded a Binding affinity (RU) with acetylcholine receptor [1] of 135 RU.

B40: 6mer-2-262 (peptide)
peptide: KWILKR
With B40, the Binding affinity (RU) with acetylcholine receptor [1] came out at 142 RU.

B41: 6mer-2-212 (peptide)
peptide: KWQLRR
In the assay with acetylcholine receptor [1], B41 gave a Binding affinity (RU) of 148 RU.

B42: 6mer-2-249 (peptide)
peptide: RGLRKR
B42 returned a Binding affinity (RU) with acetylcholine receptor [1] of 136 RU.

B43: 6mer-2-218 (peptide)
peptide: KGVSKK
Molecule B43 came in with a Binding affinity (RU) with acetylcholine receptor [1] of 147 RU.

B44: 6mer-2-211 (peptide)
peptide: RGLSRR
For B44, in the assay with acetylcholine receptor [1], the Binding affinity (RU) worked out at 135 RU.

B45: 6mer-2-474 (peptide)
peptide: RWQQRR
In the assay with acetylcholine receptor [2], B45 displayed a Binding affinity of 128 RU.

B46: 6mer-2-232 (peptide)
peptide: KQFTRK
B46 had a Binding affinity (RU) with acetylcholine receptor [1] of 135 RU.

B47: 6mer-2-475 (peptide)
peptide: KRFCRR
With B47, in the assay with acetylcholine receptor [2], the Binding affinity was 139 RU.

B48: 6mer-2-216 (peptide)
peptide: KGILKK
B48 had a Binding affinity (RU) in the assay with acetylcholine receptor [1] of 126 RU.

B49: 6mer-2-215 (peptide)
peptide: RLYYRR
On to B49, for which, in the assay with acetylcholine receptor [1], the Binding affinity (RU) came to 123 RU.

B50: 6mer-2-479 (peptide)
peptide: KWRLKK
In the assay with acetylcholine receptor [2], B50 displayed a Binding affinity of 154 RU.

B51: 6mer-2-257 (peptide)
peptide: KRFCRK
As for B51, in the assay with acetylcholine receptor [1], the Binding affinity (RU) worked out at 144 RU.

B52: 6mer-2-259 (peptide)
peptide: RVQSKR
In turn, B52 yielded a Binding affinity (RU) in the assay with acetylcholine receptor [1] of 128 RU.

B53: 6mer-2-226 (peptide)
peptide: RLLCKR
Take B53: in the assay with acetylcholine receptor [1], the Binding affinity (RU) was 154 RU.

B54: 6mer-2-217 (peptide)
peptide: KLFQKK
With B54, the Binding affinity (RU) with acetylcholine receptor [1] amounted to 135 RU.

B55: 6mer-2-241 (peptide)
peptide: KQLTKR
In turn, B55 registered a Binding affinity (RU) with acetylcholine receptor [1] of 135 RU.

B56: 6mer-2-221 (peptide)
peptide: KQVRKK
In the assay with acetylcholine receptor [1], B56 registered a Binding affinity (RU) of 153 RU.

B57: 6mer-2-478 (peptide)
peptide: KWYTRK
In the assay with acetylcholine receptor [2], B57 registered a Binding affinity of 145 RU.

B58: 6mer-2-234 (peptide)
peptide: RSQTKR
B58: the Binding affinity (RU) in the assay with acetylcholine receptor [1] turned out to be 142 RU.

B59: 6mer-2-247 (peptide)
peptide: KGYQKK
In turn, B59 showed a Binding affinity (RU) in the assay with acetylcholine receptor [1] of 146 RU.

B60: 6mer-2-268 (peptide)
peptide: RQICKK
Molecule B60 returned a Binding affinity (RU) in the assay with acetylcholine receptor [1] of 139 RU.

B61: 6mer-2-254 (peptide)
peptide: KRIQRR
In turn, B61 returned a Binding affinity (RU) with acetylcholine receptor [1] of 148 RU.

B62: 6mer-2-265 (peptide)
peptide: RRQTRK
The molecule B62 registered a Binding affinity (RU) with acetylcholine receptor [1] of 135 RU.

B63: 6mer-2-239 (peptide)
peptide: RGQYKK
Turning to B63, the Binding affinity (RU) with acetylcholine receptor [1] was found to be 125 RU.

B64: 6mer-2-472 (peptide)
peptide: RSRLRR
Regarding B64, the Binding affinity with acetylcholine receptor [2] is 148 RU.

B65: 6mer-2-250 (peptide)
peptide: KRRRKK
As for B65, the Binding affinity (RU) in the assay with acetylcholine receptor [1] turned out to be 145 RU.

B66: 6mer-2-255 (peptide)
peptide: RLRRKK
For the molecule B66, the Binding affinity (RU) in the assay with acetylcholine receptor [1] was 139 RU.

B67: 6mer-2-243 (peptide)
peptide: KRVLKR
For B67, in the assay with acetylcholine receptor [1], the Binding affinity (RU) came out at 148 RU.

B68: 6mer-2-225 (peptide)
peptide: KRLLRR
In the assay with acetylcholine receptor [1], B68 registered a Binding affinity (RU) of 145 RU.

B69: 6mer-2-213 (peptide)
peptide: KSILRR
In the assay with acetylcholine receptor [1], B69 came in with a Binding affinity (RU) of 142 RU.

B70: 6mer-2-231 (peptide)
peptide: KGISKK
In the assay with acetylcholine receptor [1], B70 yielded a Binding affinity (RU) of 144 RU.

The values above are taken from patent US20250011363A1, “OPTIMIZED SHORTENED PEPTIDE THAT BINDS TO ACETYLCHOLINE RECEPTOR, AND USE THEREOF” (SKINMED CO., LTD., priority 2021, published 2025).
